# Laboratory results as given in US20240043560A1 (Regeneron, published 2024).
# B1: BSPSMA/CD28-002 (bispecific antibody, human IgG4 S228P, kappa)
# heavy 1: QVQLVESGGGVVQPGRSLRLSCAASGFTFSSYGMHWVRQAPGKGLEWVAVISYAGNNKYYADSVKGRFTVSRDNSKKTLYLQMNSLRSEDTAVYYCAKDSYYDFLTDPDVLDIWGQGTMVTVSSASTKGPSVFPLAPCSRSTSESTAALGCLVKDYFPEPVTVSWNSGALTSGVHTFPAVLQSSGLYSLSSVVTVPSSSLGTKTYTCNVDHKPSNTKVDKRVESKYGPPCPPCPAPPVAGPSVFLFPPKPKDTLMISRTPEVTCVVVDVSQEDPEVQFNWYVDGVEVHNAKTKPREEQFNSTYRVVSVLTVLHQDWLNGKEYKCKVSNKGLPSSIEKTISKAKGQPREPQVYTLPPSQEEMTKNQVSLTCLVKGFYPSDIAVEWESNGQPENNYKTTPPVLDSDGSFFLYSRLTVDKSRWQEGNVFSCSVMHEALHNHYTQKSLSLSLGK
# heavy 2: EVQLVESGGGLVQPGGSLRLSCAASGFTFSTYAMTWVRQAPGKGLEWVSFISGSGDNTYYADSVKGRFTISRDNSKNTLYLQMNSLRADDSAIYHCAKDSGYCSSGGCSLYFYYGMDVWGQGTTVTVSSASTKGPSVFPLAPCSRSTSESTAALGCLVKDYFPEPVTVSWNSGALTSGVHTFPAVLQSSGLYSLSSVVTVPSSSLGTKTYTCNVDHKPSNTKVDKRVESKYGPPCPPCPAPPVAGPSVFLFPPKPKDTLMISRTPEVTCVVVDVSQEDPEVQFNWYVDGVEVHNAKTKPREEQFNSTYRVVSVLTVLHQDWLNGKEYKCKVSNKGLPSSIEKTISKAKGQPREPQVYTLPPSQEEMTKNQVSLTCLVKGFYPSDIAVEWESNGQPENNYKTTPPVLDSDGSFFLYSRLTVDKSRWQEGNVFSCSVMHEALHNRFTQKSLSLSPGK
# light: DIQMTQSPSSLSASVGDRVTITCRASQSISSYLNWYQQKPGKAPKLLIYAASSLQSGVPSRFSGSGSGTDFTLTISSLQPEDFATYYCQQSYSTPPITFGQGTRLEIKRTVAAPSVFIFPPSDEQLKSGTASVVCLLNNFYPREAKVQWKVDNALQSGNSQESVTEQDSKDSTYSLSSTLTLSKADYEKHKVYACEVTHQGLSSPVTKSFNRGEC
# B2: BSPSMA/CD28-003 (bispecific antibody, human IgG4 S228P, kappa)
# heavy 1: B1 heavy 1
# heavy 2: EVQLVESGGGLVQPGGSLRLSCAASGFTFSRNNMHWVRQAPGKGLEYVSGISSNGGRTYYADSVKGRFTISRDNSKNTLYLQMGGLRAADMAVYFCTRDDELLSFDYWGQGTLVTVSSASTKGPSVFPLAPCSRSTSESTAALGCLVKDYFPEPVTVSWNSGALTSGVHTFPAVLQSSGLYSLSSVVTVPSSSLGTKTYTCNVDHKPSNTKVDKRVESKYGPPCPPCPAPPVAGPSVFLFPPKPKDTLMISRTPEVTCVVVDVSQEDPEVQFNWYVDGVEVHNAKTKPREEQFNSTYRVVSVLTVLHQDWLNGKEYKCKVSNKGLPSSIEKTISKAKGQPREPQVYTLPPSQEEMTKNQVSLTCLVKGFYPSDIAVEWESNGQPENNYKTTPPVLDSDGSFFLYSRLTVDKSRWQEGNVFSCSVMHEALHNRFTQKSLSLSPGK
# light: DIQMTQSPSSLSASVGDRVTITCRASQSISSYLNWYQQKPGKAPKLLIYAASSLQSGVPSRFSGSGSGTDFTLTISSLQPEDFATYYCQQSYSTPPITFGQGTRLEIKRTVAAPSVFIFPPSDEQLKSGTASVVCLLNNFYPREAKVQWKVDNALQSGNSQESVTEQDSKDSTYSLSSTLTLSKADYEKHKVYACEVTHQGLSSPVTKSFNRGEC
# notes: also called anti-PSMAxCD28 bispecific antibody
# B3: BSPSMA/CD28-001 (bispecific antibody, human IgG4 S228P, kappa)
# heavy 1: QVQLVESGGGVVQPGRSLRLSCAASGFTFSSYGMHWVRQAPGKGLEWVAFMSYDGSNKFYSDSVKGRFTISRDNSRKMLFLQMNNLRAEDTAVYYCARDQYYDFLTDHGVFDYWGQGTLVTVSSASTKGPSVFPLAPCSRSTSESTAALGCLVKDYFPEPVTVSWNSGALTSGVHTFPAVLQSSGLYSLSSVVTVPSSSLGTKTYTCNVDHKPSNTKVDKRVESKYGPPCPPCPAPPVAGPSVFLFPPKPKDTLMISRTPEVTCVVVDVSQEDPEVQFNWYVDGVEVHNAKTKPREEQFNSTYRVVSVLTVLHQDWLNGKEYKCKVSNKGLPSSIEKTISKAKGQPREPQVYTLPPSQEEMTKNQVSLTCLVKGFYPSDIAVEWESNGQPENNYKTTPPVLDSDGSFFLYSRLTVDKSRWQEGNVFSCSVMHEALHNHYTQKSLSLSLGK
# heavy 2: QVQLQESGPGLVKPSETLSLTCTVSGGSISSYYWSWIRQPPGKGLEWIGYIYYSGITHYNPSLKSRVTISVDTSKIQFSLKLSSVTAADTAVYYCARWGVRRDYYYYGMDVWGQGTTVTVSSASTKGPSVFPLAPCSRSTSESTAALGCLVKDYFPEPVTVSWNSGALTSGVHTFPAVLQSSGLYSLSSVVTVPSSSLGTKTYTCNVDHKPSNTKVDKRVESKYGPPCPPCPAPPVAGPSVFLFPPKPKDTLMISRTPEVTCVVVDVSQEDPEVQFNWYVDGVEVHNAKTKPREEQFNSTYRVVSVLTVLHQDWLNGKEYKCKVSNKGLPSSIEKTISKAKGQPREPQVYTLPPSQEEMTKNQVSLTCLVKGFYPSDIAVEWESNGQPENNYKTTPPVLDSDGSFFLYSRLTVDKSRWQEGNVFSCSVMHEALHNRFTQKSLSLSPGK
# light: not shown
# notes: also called mAb1; REGN5678
# Tests used:
# [1] = target: full-length human CD28 (hCD28, amino acids M1 to S220, accession #P10747) on engineered reporter T-cells (human, UniProt P10747 19-220); assay: cell-based or functional assay
# [2] = target: T1, PSMA on the surface of cell lines expressing PSMA (C4-2, 22RV1) (human, UniProt Q04609 1-750); assay: flow cytometry, C4-2 cells expressing PSMA
# T1 construct: whole, on cells; also called C4-2 cells; 22RV1 cells
# T1 sequence (Q04609 whole entry): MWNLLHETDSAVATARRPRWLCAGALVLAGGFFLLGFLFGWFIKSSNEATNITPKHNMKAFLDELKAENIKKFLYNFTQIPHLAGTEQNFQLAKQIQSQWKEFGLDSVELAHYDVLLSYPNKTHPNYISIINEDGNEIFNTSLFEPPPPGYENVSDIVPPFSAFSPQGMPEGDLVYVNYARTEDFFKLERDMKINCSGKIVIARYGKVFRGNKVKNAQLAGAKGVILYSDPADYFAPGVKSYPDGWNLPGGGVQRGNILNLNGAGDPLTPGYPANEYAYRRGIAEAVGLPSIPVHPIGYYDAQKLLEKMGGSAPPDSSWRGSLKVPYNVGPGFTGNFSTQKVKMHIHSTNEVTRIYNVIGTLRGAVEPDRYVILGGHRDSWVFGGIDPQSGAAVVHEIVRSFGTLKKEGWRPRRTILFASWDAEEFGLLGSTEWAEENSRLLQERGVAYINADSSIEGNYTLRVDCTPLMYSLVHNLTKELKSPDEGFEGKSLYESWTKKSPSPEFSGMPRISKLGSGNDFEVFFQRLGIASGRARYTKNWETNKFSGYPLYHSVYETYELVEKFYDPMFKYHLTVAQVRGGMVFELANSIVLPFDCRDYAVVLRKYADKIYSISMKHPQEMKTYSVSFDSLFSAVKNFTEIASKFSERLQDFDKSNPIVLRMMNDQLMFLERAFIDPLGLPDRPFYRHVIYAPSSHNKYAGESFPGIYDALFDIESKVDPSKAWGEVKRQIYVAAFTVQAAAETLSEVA
# [3] = target: T1, PSMA on the surface of cell lines …; assay: flow cytometry, 22RV1 cells expressing PSMA
# [4] = target: T2, CD28 on the surface of Human T cells (human, UniProt P10747 19-220); assay: flow cytometry, human CD4+ T cells; CD4+ T cells
# T2 construct: whole, on cells; also called CD28 on T cells; all T cells
# [5] = target: T2, CD28 on the surface of Human T cells; assay: flow cytometry, human CD8+ T cells; CD8+ T cells
# [6] = target: T3, 6h.hPSMA (recombinant Human PSMA/FOLH1 Protein, R&D, Catalog #4234-ZN) (human, UniProt Q04609 44-750); assay: SPR, Biacore T-200, antibody captured by anti-human Fc, 6h.hPSMA injected, 25°C
# T3 construct: Bought protein; also called hPSMA with an N-terminal polyhistidine tag; hPSMA.6H; not shown: N-terminal polyhistidine tag (6h)
# T3 sequence (Q04609 44-750 limits assumed): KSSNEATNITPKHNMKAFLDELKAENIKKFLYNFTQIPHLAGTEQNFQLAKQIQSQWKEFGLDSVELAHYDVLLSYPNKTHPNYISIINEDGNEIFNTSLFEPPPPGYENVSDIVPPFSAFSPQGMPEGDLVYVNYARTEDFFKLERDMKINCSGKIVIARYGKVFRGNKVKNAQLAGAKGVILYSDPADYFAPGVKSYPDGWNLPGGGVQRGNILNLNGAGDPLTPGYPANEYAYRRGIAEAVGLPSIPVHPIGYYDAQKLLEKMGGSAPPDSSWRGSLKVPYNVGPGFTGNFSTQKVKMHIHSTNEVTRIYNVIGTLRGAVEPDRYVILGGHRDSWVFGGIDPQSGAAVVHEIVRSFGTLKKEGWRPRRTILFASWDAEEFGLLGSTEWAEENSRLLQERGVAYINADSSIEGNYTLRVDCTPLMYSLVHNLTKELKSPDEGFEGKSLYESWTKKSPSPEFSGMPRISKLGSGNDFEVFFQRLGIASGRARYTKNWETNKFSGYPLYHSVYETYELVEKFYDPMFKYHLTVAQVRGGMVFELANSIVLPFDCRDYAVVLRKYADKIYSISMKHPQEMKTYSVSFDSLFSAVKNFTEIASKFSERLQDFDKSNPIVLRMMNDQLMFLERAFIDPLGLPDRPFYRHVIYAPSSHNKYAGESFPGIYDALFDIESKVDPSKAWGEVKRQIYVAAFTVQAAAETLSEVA
# Experimental: (§1) The different concentrations of 6h.hPSMA were injected over the monoclonal antibody captured surface at a flow rate of 50 μL/minute. Association of 6h.hPSMA to the captured monoclonal antibody was monitored for 3 minutes and the dissociation of 6h.hPSMA in HBS-P++ running buffer was monitored for 10 minutes. Kinetic association (kₐ) and dissociation (kd) rate constants were determined by fitting the real-time sensorgrams to a 1:1 binding model using Scrubber 2.0c curve fitting software (BioLogic Software). Binding dissociation equilibrium constants (KD) and dissociative half-lives (t1/2) were calculated from the kinetic rate constants as: KD(M)=kd/kₐ, and t1/2 (min)=0.693/kd/60
# [7] = target: T4, hCD28.mmh (human, UniProt P10747 19-152); assay: SPR, Biacore T-200, antibody captured by anti-human Fc, hCD28.mmh injected, 25°C
# T4 construct: also called hCD28.6H; not shown: neither explained nor printed
# Experimental: as §1, with “Different concentrations” for “The different concentrations”, “of hCD28.mmh” for “of 6h.hPSMA”, “for 5” for “for 3”, “fitting software.” for “fitting software (BioLogic Software).”
# [8] = target: T2, CD28 on the surface of Human T cells; assay: flow cytometry, human T cells (all T cells); all T cells
# [9] = target: T4, hCD28.mmh; assay: SPR, Biacore, captured antibody, soluble hCD28 injected, 37°C
# [10] = target: T3, 6h.hPSMA (recombinant Human PSMA/FOLH1 …); assay: SPR, Biacore, captured antibody, hPSMA.6H (block headed 10 nM), 37°C
# [11] = target: T3, 6h.hPSMA (recombinant Human PSMA/FOLH1 …); assay: SPR, Biacore, captured antibody, hPSMA.6H (block headed 20 nM), 37°C
# [12] = target: T3, 6h.hPSMA (recombinant Human PSMA/FOLH1 …); assay: SPR, Biacore, captured antibody, hPSMA.6H (block headed 20 nM), 37°C; 20 nM hPSMA.6H block, 37 C
Binder,"EC50 [M], luciferase activity in engineered reporter T-cells with HEK293/hCD20/hPSMA, presence of TCR stimulation [1] [M]","Fold induction, luciferase activity in engineered reporter T-cells with HEK293/hCD20, absence of TCR stimulation [1] [fold]","Fold induction, luciferase activity in engineered reporter T-cells with HEK293/hCD20, presence of TCR stimulation [1] [fold]","Fold induction, luciferase activity in engineered reporter T-cells with HEK293/hCD20/hPSMA, absence of TCR stimulation [1] [fold]","Fold induction, luciferase activity in engineered reporter T-cells with HEK293/hCD20/hPSMA, presence of TCR stimulation [1] [fold]",EC50 [2] [nM],EC50 [3] [nM],EC50 [4] [nM],EC50 [5] [nM],Kd [6] [nM],T½ [6] [h],koff [6] [s⁻¹],kon [6] [M⁻¹ s⁻¹],Kd [7] [nM],T½ [7] [min],koff [7] [s⁻¹],kon [7] [M⁻¹ s⁻¹],also measured
B1,4.57e-10,0.87,0.92,0.89,13.6,,,,,,,,,,,,,
B2,2.78e-10,0.94,0.95,0.98,24.5,1.5,6.33,167,180,0.137,5.01,3.85e-05,280000,207,8.2,0.00141,6790,
B3,1.72e-10,0.81,1,1.04,16.1,3.87,3.05,50.9,58.9,0.251,3.91,4.92e-05,196000,144,3.5,0.00326,22600,EC50 [8]: 48 nM; Kd [9]: 272 nM; koff [9]: 0.0067 s⁻¹; kon [9]: 24600 M⁻¹ s⁻¹; t½ [9]: 1.7 min; Kd [10]: 0.396 nM; koff [10]: 7.93e-05 s⁻¹; kon [10]: 200000 M⁻¹ s⁻¹; t½ [10]: 2.43 h; Kd [11]: 0.217 nM; kon [11]: 293000 M⁻¹ s⁻¹; t½ [11]: 3.03 h; koff [12]: 6.36e-05 s⁻¹
